One block for each binder: values may come before it.
Target: T1, human mesothelin (human, UniProt Q13421 296-580, limits assumed)
T1 construct: also called MSLN
Test: method not stated; affinity given in parentheses for the binder

T1 sequence (Q13421 other isoform, or with tags, fused parts or gaps limits assumed): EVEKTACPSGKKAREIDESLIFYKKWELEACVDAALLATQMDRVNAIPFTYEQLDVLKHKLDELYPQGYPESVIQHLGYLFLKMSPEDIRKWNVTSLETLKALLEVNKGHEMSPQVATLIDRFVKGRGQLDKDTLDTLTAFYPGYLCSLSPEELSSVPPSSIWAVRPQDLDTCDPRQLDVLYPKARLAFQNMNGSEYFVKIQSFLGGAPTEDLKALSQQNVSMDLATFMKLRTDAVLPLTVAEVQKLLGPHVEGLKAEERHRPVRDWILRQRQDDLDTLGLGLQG

Kd: 6 nM
B1: Single domain anti-MSLN binder 4 (SD4) (VHH)
VHH: EVQLVESGGGLVQPGGSLRLSCAASGSTSSINTMYWYRQAPGKERELVAFISSGGSTNVRDSVKGRFTISRDNSKNTLYLQMNSLRAEDTAVYYCNTYIPYGGTLHDFWGQGTLVTVSS
notes: also called anti-MSLN-SD4

Kd: 25 nM
B2: Single domain anti-MSLN binder 1 (SD1) (VHH)
VHH: EVQLVESGGGLVQPGGSLRLSCAASGGDWSANFMYWYRQAPGKQRELVARISGRGVVDYVESVKGRFTISRDNSKNTLYLQMNSLRAEDTAVYYCAVASYWGQGTLVTVSS
notes: also called anti-MSLN-SD1
